Data from article PMC4351136.

What was measured:
[1] = target: human β2GPI (beta2-glycoprotein I) (human (endogenous in pooled normal human serum)) (UniProt P02749); assay: ELISA
[2] = target: mouse β2GPI (beta2-glycoprotein I) (mouse (endogenous in pooled BALB/c mouse serum)) (UniProt Q01339); assay: ELISA
[3] = target: domain V of human β2GPI (human) (UniProt P02749); assay: ITC
Sequence of domain V of human β2GPI (human) (P02749 263-345): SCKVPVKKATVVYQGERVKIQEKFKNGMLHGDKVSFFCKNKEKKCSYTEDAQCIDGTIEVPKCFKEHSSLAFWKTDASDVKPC

Sequence of mouse β2GPI (beta2-glycoprotein I) (mouse (endogenous in pooled BALB/c mouse serum)) (Q01339 20-345): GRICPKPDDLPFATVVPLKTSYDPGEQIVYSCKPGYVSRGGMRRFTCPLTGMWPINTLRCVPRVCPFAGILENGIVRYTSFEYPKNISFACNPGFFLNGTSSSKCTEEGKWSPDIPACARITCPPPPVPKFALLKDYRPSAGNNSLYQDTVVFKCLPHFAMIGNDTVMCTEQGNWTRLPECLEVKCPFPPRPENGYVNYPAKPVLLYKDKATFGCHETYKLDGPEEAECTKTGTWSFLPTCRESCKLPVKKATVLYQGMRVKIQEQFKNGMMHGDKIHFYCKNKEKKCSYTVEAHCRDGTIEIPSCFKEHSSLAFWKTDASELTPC
Sequence of human β2GPI (beta2-glycoprotein I) (human (endogenous in pooled normal human serum)) (P02749 20-345): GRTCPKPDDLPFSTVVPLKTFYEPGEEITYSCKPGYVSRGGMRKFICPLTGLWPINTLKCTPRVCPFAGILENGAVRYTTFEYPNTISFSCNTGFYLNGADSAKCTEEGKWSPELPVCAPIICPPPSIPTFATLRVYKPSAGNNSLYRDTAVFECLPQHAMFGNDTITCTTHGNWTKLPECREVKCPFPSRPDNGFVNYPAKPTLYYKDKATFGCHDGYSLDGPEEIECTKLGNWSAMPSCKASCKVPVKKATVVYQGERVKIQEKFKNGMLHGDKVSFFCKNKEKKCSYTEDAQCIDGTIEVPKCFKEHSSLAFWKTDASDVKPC

Row | Substance | IC50 [1] | IC50 [2] | Kd [3] | dH [3] | stoichiometry N [3]
1 | Asn36/Asp mutant of mouse A1-A1 (from UniProt Q924X6 40-75; Q924X6 40-75) | 2.5 µM | 2.8 µM | – | – | –
2 | human A1-A1 | 5 µM | 3.1 µM | – | – | –
3 | human A1, first ligand-binding module of ApoE receptor 2 (ApoER2) (domain or fragment) | – | – | 20 µM | -6.3 kcal/mol | 1.06
4 | mouse A1-A1 | 2.7 µM | 3 µM | – | – | –
5 | mouse A1, first ligand-binding module of ApoE receptor 2 (ApoER2) (domain or fragment) | – | – | 26 µM | -5.5 kcal/mol | 1.06
